According to patent US20200140504A1 (GENESEN, published 2020):
Values belong to the binder of their own block, whether it stands above or below them. Primed or numbered codes have the meaning given here. Ends that are not written are not given here. FITC′ = fluorescein isothiocyanate

How the values were obtained:
[1] = target: T1, Toll-like receptor 4 (TLR4), human (human, UniProt O00206 24-839); test: conclusion of Experimental Example 8 (SPR on TIR-domain peptides, data not given; confocal microscopy)
T1 construct: whole, on cells; also called hTLR4; human TLR4
T1 sequence (O00206 24-839): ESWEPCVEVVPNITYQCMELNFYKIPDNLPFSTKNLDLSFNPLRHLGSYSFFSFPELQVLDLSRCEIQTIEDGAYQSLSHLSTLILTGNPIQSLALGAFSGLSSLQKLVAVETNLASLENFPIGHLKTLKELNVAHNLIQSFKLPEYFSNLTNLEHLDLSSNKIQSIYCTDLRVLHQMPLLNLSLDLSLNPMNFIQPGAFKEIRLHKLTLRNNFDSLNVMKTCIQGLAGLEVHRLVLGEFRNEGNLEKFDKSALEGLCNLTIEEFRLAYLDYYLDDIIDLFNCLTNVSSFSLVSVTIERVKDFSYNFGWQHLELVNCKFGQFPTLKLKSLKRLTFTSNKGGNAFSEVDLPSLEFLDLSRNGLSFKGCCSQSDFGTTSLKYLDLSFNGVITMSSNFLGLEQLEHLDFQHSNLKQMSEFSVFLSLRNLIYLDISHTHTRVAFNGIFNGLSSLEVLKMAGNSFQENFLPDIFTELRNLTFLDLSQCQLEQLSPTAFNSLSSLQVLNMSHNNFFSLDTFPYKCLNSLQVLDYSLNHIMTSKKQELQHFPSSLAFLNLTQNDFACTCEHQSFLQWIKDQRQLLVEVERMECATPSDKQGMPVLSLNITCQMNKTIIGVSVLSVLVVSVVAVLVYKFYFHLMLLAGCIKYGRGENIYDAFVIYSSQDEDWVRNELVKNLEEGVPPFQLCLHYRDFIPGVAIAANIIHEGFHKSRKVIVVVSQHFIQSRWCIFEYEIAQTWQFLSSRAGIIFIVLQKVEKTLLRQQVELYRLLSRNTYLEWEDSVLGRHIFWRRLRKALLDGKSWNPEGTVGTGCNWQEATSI

[2] = target: T1, Toll-like receptor 4 (TLR4), human; test: confocal laser scanning microscopy, THP1 cells treated with TIP1-FITC with or without LPS
Protocol: (§1) RAW 264.7 cells and THP1 cells were dispensed into 24-well plates to a cell number of 2×10⁵ cells/well, and then grown in an incubator overnight. Subsequently, combined treatment with TIP1 and LPS was performed. After 24 hours, the RAW 264.7 cells and the THP1 cells were fixed with 3.7% formaldehyde (Sigma-Aldrich Co. LLC) for 15 minutes, and immersed into 0.2% Triton X-100 (AMRESCO, Solon, Ohio, USA) for 15 minutes. Then, washing with PBS was performed three times and blocking with 2% BSA solution was performed. […] Subsequently, the cells were stained at room temperature for 15 minutes using 5 μM Hoechst 33258 (Sigma-Aldrich Co.), and the number of the fluorescently stained cells was counted using a confocal laser scanning microscope (LSM-700, Carl Zeiss MicroImaging GmbH). The images were analyzed using Zen 2009 software.
(§2) In addition, in order to identify binding of TIP1 to TLR4, TIP1-FITC was prepared by binding fluorescein isothiocyanate (FITC) to the N-terminus of TIP1. The THP1 cells in Example 1-2 were subjected to treatment with TIP1 (TIP1-FITC) or to combined treatment with LPS and TIP1, and then the number of fluorescently stained cells were counted using immunofluorescent staining and a confocal microscope according to the method described in Examples 2-4, thereby analyzing interactions between the proteins. […]

[3] = target: T2, MyD88 (myeloid differentiation 88), in THP1 human monocytes (human, UniProt Q99836 1-296); test: confocal immunofluorescence, THP1 cells treated with TIP1-FITC and LPS
T2 construct: whole, on cells; Endogenous intracellular protein seen by immunofluorescence; Species follows from the THP1 human cells
T2 sequence (Q99836 whole entry): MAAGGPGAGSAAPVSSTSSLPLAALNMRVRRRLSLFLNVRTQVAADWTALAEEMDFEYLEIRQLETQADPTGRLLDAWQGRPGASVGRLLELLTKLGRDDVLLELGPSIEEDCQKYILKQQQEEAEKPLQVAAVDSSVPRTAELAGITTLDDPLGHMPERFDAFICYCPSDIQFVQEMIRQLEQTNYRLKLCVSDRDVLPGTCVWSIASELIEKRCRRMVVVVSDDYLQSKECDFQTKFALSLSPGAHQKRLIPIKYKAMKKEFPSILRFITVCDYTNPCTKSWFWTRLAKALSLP
Protocol: as §1, §2

binding result [1]: binds
Binder: RQIKIWFQNRRMKWKKSHCRVLLI [TIP1 (Toll-like receptor inhibitory peptide 1)]

binding result [2]: binds
binding result [3]: binds
B1: TIP1-FITC (peptide)
peptide: {FITC′}-RQIKIWFQNRRMKWKKSHCRVLLI
notes: used for confocal microscopy; also called TIP1 (TIP1-FITC)
